# Experimental data published in publication PMC10537722, “Proline Dehydrogenase and Pyrroline 5 Carboxylate Dehydrogenase from Mycobacterium tuberculosis: Evidence for Substrate Channeling” (Pathogens, 2023).
# How the values were obtained:
# [1] = target: T1, proline dehydrogenase (PruB) (Mycobacterium tuberculosis, UniProt O50444); experiment: […]; added FAD makes little difference to activity; format: binding
# T1 construct: gene Rv1188
# [2] = test system: CC(C)=CCC/C(C)=C/CC1=C(C)C(=O)c2ccccc2C1=O; experiment: purified protein; conditions: FAD; pH 7.0; 25.0 °C
# [3] = test system: COC1=C(OC)C(=O)C(CC=C(C)C)=C(C)C1=O; experiment: purified protein; conditions: FAD; pH 7.0; 25.0 °C
# [4] = test system: CC1=C(CCC(C)C)C(=O)c2ccccc2C1=O; experiment: purified protein; conditions: FAD; pH 7.0; 25.0 °C
# [5] = test system: O=C(O)[C@@H]1CCCN1; experiment: purified protein; conditions: FAD; pH 7.0; 25.0 °C
# [6] = test system: CC(C)=CCC1=C(C)C(=O)c2ccccc2C1=O; experiment: purified protein; conditions: FAD; pH 7.0; 25.0 °C
# T1 sequence (O50444 1-329): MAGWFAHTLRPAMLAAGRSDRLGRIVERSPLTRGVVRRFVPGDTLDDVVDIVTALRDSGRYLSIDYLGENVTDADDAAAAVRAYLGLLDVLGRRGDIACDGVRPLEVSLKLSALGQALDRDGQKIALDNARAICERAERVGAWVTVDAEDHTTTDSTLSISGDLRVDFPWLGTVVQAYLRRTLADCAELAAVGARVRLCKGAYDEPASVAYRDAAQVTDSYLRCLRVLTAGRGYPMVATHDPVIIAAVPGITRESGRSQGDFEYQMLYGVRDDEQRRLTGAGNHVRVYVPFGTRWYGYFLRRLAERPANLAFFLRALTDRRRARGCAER
Compound,co-purification with the enzyme (yellow protein); added FAD makes little differen [1],Km [2],Km [3],kcat [3],kcat/Km [3],Km [4],Km [5],kcat [5],kcat/Km [5],Km [6]
Cc1cc2nc3c(=O)[nH]c(=O)nc-3n(C[C@H](O)[C@H](O)[C@H](O)COP(=O)(O)OP(=O)(O)OC[C@H]3O[C@@H](n4cnc5c(N)ncnc54)[C@H](O)[C@@H]3O)c2cc1C [FAD],"the addition of FAD to the assay buffer resulted in little difference in activity, confirming the copurification",,,,,,,,,
proline dehydrogenase (PruB) (Mycobacterium tuberculosis H37Rv),,12 ± 0.66 µM,9.7 ± 1.4 µM,2.3 s⁻¹,230000 M⁻¹ s⁻¹,46 ± 13 µM,2.5 ± 0.3 mM,1.7 s⁻¹,690 M⁻¹ s⁻¹,23 ± 3.2 µM
